Test results published in patent publication US20220017627A1 (Bristol-Myers Squibb, published 2022).

Legend:
[1] = target: T1, cynomolgus IL-7Rα expressed on cynomolgus T cells / leukocytes (cynomolgus, UniProt Q38IC7 21-459); test: cell-based or functional assay
T1 sequence: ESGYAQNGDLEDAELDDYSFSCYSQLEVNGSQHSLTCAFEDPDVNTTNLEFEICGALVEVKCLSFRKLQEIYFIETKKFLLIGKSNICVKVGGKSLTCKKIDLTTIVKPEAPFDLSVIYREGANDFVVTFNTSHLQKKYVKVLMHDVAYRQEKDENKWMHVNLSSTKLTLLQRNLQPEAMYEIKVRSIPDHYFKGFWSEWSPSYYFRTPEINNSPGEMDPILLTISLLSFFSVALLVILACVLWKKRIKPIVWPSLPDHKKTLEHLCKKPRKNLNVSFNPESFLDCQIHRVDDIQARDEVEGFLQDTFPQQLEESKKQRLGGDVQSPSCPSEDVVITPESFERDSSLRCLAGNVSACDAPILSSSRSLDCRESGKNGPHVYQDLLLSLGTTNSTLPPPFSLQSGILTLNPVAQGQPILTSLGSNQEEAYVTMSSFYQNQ

hIL-7R (Example 11) [2] = target: T2, hIL-7R (Example 11) (human, UniProt P16871 21-239); test: SPR (Biacore), reference of the ratio [cont'd]
T2 construct: Called full length hIL-7R for the mRNA display and hIL-7R for the Biacore runs; also called full length hIL-7R; human IL-7R
T2 chain: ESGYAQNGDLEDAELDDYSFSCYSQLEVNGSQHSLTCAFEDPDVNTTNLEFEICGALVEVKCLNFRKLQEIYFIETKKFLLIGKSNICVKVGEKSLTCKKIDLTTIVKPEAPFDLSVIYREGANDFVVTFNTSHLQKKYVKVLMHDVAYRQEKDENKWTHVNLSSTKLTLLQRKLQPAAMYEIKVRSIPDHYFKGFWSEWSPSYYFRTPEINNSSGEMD
Description: (§1) Affinity (KD) of each variant binding to hIL-7R was obtained using this approach, and compared against the enrichment ratio (ER) obtained through NGS heat map analysis for the same variant.

[3] = target: T3, his-tagged human-IL7R extracellular domain construct (human, UniProt P16871 21-239); test: SPR (Biacore T200), pH 6.0 against pH 7.4
T3 construct: Generated in house; also called human IL-7Rα; not shown: his tag
T3 chain: T2 chain
Description: (§2) Briefly, experiments were performed on a BIACORE™ T200 instrument (GE Healthcare, Chicago, Ill., USA) in a running buffer consisting of 10 mM NaPO4, 130 mM NaCl, 0.05% p20 (PBS-T) at either pH 7.4 or pH 6.0. The chip surface was prepared by immobilizing protein A on flow cell 1, 2, 3, and 4 of a CM5 sensor chip using ethyl(dimethylaminopropyl) carbodiimide/NHS to a density of 4000 RU. […] Purified extracellular domain constructs (generated in house) of his-tagged human-IL7R or cynomolgus-IL7R were tested for binding using a 2 fold serial dilution from 500 nM to 7.8 nM, with 180 s association time and 360 s dissociation time at 30 μl/min. Regeneration between cycles was accomplished using 2×30 second injections of 10 mM glycine-HCL pH 1.5. The data were analyzed using the Biacore T200 Evaluation software (GE Healthcare), and fit to a 1:1 Langmuir model.

[4] = target: T4, his-tagged cynomolgus-IL7R extracellular domain construct (cynomolgus, UniProt Q38IC7 21-240); test: SPR (Biacore T200), pH 6.0 against pH 7.4
T4 construct: also called cyno IL-7Rα; not shown: his tag
T4 sequence: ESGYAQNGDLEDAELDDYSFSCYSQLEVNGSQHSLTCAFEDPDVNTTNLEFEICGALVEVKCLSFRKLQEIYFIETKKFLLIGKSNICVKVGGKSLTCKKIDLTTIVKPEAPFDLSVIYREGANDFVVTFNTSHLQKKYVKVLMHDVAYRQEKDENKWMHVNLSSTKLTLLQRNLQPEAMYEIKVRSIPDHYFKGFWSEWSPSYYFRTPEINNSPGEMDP
Description: as §2

[5] = target: T1, cynomolgus IL-7Rα expressed on …; test: flow cytometry, occupancy of IL-7Ra on CD4+CD45RA+ T cells of cynomolgus monkeys after a single i.v. dose, against serum concentration
Description: To confirm the above cross-reactivity data, cellular binding and functional blockade were also assessed. […] Then, at day 8 post-administration, PBMCs were isolated from the animals.

[6] = target: T3, his-tagged human-IL7R extracellular …; test: SPR (Biacore T200), antibody captured on protein A, his-tagged ECD as analyte, 37° C., pH 7.4
Description: as §2

[7] = target: T4, his-tagged cynomolgus-IL7R …; test: as above
Description: as §2

[8] = target: T5, human IL-7Rα expressed on human T cells (whole blood / PBMCs) (human, UniProt P16871 21-239); test: flow cytometry binding, CD4+CD45RA+ T cells in whole blood
T5 construct: Native receptor on primary cells; also called CD127
T5 chain: T2 chain

[9] = target: T5, human IL-7Rα expressed on human T cells …; test: cell-based or functional assay
[10] = target: T5, human IL-7Rα expressed on human T cells …; test: flow cytometry binding, CD8+CD45RA+ T cells in whole blood
[11] = target: T5, human IL-7Rα expressed on human T cells …; test: cell-based or functional assay
[12] = target: T5, human IL-7Rα expressed on human T cells …; test: flow cytometry binding, CD8+CD45RA- T cells in whole blood
[13] = target: T5, human IL-7Rα expressed on human T cells …; test: flow cytometry binding, CD4+CD45RA- T cells in whole blood
[14] = target: T3, his-tagged human-IL7R extracellular …; test: SPR (Biacore T200), antibody captured on protein A, his-tagged ECD as analyte, 37° C., pH 6.0
Description: as §2

[15] = target: T4, his-tagged cynomolgus-IL7R …; test: as above
Description: as §2

hIL-7R (Example 11) [16] = target: T2, hIL-7R (Example 11); test: Biacore, mAb captured on anti-human IgG CM5 chip, hu IL-7R as analyte (top curve 33.3nM), HBS-P+ pH 7.4, 37 C
Description: as §1

B1: Anti-IL-7R Antibody (Antibody A) (antibody, human IgG1, kappa, V domains shown)
VH: EVQLVESGGGLVQPGRSLRLSCAASGFTFDDHAMHWVRQAPGKGLEWVSGISWNSRGIGYADSVKGRFTIFRDNAKNSLYLQMNSLRAEDTALYYCAKDEYSRGYYVLDVWGQGTTVTVSS
VL: AIQLTQSPSSLSASVGDRVTITCRASQGISSALAWYQQKPGKAPKLLIYDASSLESGVPSRFSGSGSGTDFTLTISSLQPEDFATYYCQQFNSYPLWITFGQGTRLEIKR
notes: also called 18B1; 18B1 antibody
- IC50 of IL-7 mediated pSTAT5 activation against serum antibody concentration, cynomolgus monkeys [1]: ~2
- KD Relative to 18B1 (hIL-7R (Example 11) [2]): 1
- fold weaker binding at pH 6.0 than at pH 7.4 [3]: ~4 fold
- fold weaker binding at pH 6.0 than at pH 7.4 [4]: ~4 fold
- EC50 (read off the curve) [5]: ~0.04 µg/mL
- Kd [6]: 1.3 nM
- koff [6]: 0.0004 s⁻¹
- kon [6]: 310000 M⁻¹ s⁻¹
- Kd [7]: 1.7 nM
- koff [7]: 0.0005 s⁻¹
- kon [7]: 290000 M⁻¹ s⁻¹
- EC50 [8]: 1.4 nM
- pSTAT5 IC50, CD4+CD45RA+ T cells in whole blood, IL-7 (0.25 ng/mL) [9]: 0.6 nM
- pSTAT5 IC50, CD4+CD45RA+ T cells in whole blood, IL-7 (2.0 ng/mL) [9]: 2.1 nM
- EC50 [10]: 2 nM
- pSTAT5 IC50, IL-7 stimulated CD4+CD45RA+ T cells, CD (n = 10) [11]: 0.36 nM
- pSTAT5 IC50, IL-7 stimulated CD4+CD45RA+ T cells, NHV (n = 19) [11]: 0.6 nM
- pSTAT5 IC50, IL-7 stimulated CD4+CD45RA+ T cells, UC (n = 21) [11]: 0.34 nM
- pSTAT5 IC50, IL-7 stimulated CD4+CD45RA- T cells, CD (n = 10) [11]: 0.36 nM
- pSTAT5 IC50, IL-7 stimulated CD4+CD45RA- T cells, NHV (n = 19) [11]: 0.52 nM
- pSTAT5 IC50, IL-7 stimulated CD4+CD45RA- T cells, UC (n = 21) [11]: 0.28 nM
- pSTAT5 IC50, IL-7 stimulated CD8+CD45RA+ T cells, CD (n = 10) [11]: 0.29 nM
- pSTAT5 IC50, IL-7 stimulated CD8+CD45RA+ T cells, NHV (n = 19) [11]: 0.43 nM
- pSTAT5 IC50, IL-7 stimulated CD8+CD45RA+ T cells, UC (n = 21) [11]: 0.29 nM
- pSTAT5 IC50, IL-7 stimulated CD8+CD45RA- T cells, CD (n = 10) [11]: 0.23 nM
- pSTAT5 IC50, IL-7 stimulated CD8+CD45RA- T cells, NHV (n = 19) [11]: 0.38 nM
- pSTAT5 IC50, IL-7 stimulated CD8+CD45RA- T cells, UC (n = 21) [11]: 0.22 nM
- EC50 [12]: 1.9 nM
- EC50 [13]: 3.3 nM
- Kd [14]: 5.3 nM
- koff [14]: 0.0013 s⁻¹
- kon [14]: 240000 M⁻¹ s⁻¹
- Kd [15]: 7 nM
- koff [15]: 0.0016 s⁻¹
- kon [15]: 230000 M⁻¹ s⁻¹
- Kd (hIL-7R (Example 11) [16]): 1.4 nM
- koff (hIL-7R (Example 11) [16]): 0.00152 s⁻¹
- kon (hIL-7R (Example 11) [16]): 1.09e+06 M⁻¹ s⁻¹
